From the RNAGym collection of RNA variant scans (doi:10.1093/molbev/msab373)

B1: Azoarcus group I ribozyme (parent)
chain: GUGCCUUGCGCCGGGAAACCACGCAAGGGAUGGUGUCAAAUUCGGCGAAACCUAAGCGCCCGCCCGGGCGUAUGGCAACGCCGAGCCAAGCUUCGGCGCCUGCGCCGAUGAAGGUGUAGAGACUAGACGGCACCCACCUAAGGCAAACGCUAUGGUGAAGGCAUAGUCCAGGGAGUGGCGAAAGUCACACAAACCGG

Variants of: B1
Experiment: reverse-splicing fitness (ratio to wild type); higher = more active; in vitro selection; Mg2+ level not given
Method in brief: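 An in vitro group I ribozyme library with randomized positions was T7-transcribed and gel-purified. In triplicate, 10 pmol RNA in EPPS pH 7.5 was reacted with 50 pmoles of a 30-nt RNA substrate for 1 h at 37 °C across several added MgCl2 levels (1–48 mM), then stopped with EDTA. Products were reverse transcribed from a substrate-complementary primer, PCR-amplified and sequenced (HiSeq 4000). Fitness is a variant's read proportion after selection over that before, normalised to wild type.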
Work on C82A A111G A120G A145C C150U C169G U176C yielded a reverse-splicing fitness of 0.0123.
C82A A111G A120G A145C C150U C169G U176A gave a reverse-splicing fitness of 0.0242.
Variant C82A A111G A120G A145C C150U C169G U176G has a reverse-splicing fitness of 0.00597.
Variant C82A A111G A120C A145U C169G U176A has a reverse-splicing fitness of 0.0135.
C82A A111G A120C A145U C169G U176C gave a reverse-splicing fitness of 0.0172.
Work on C82A A111G A120C A145U C169G U176G yielded a reverse-splicing fitness of 0.00526.
Work on C82A A111G A120C C150G C169G U176G yielded a reverse-splicing fitness of 0.00561.
In the case of C82A A111G A120C C150G C169G U176C, the reverse-splicing fitness is reported as 0.00485.
C82A A111G A120C C150G C169G U176A showed a reverse-splicing fitness of 0.00731.
For C82A A111G A120G C150A C169U U176G, the reverse-splicing fitness was 0.00838.
Variant C82A A111G A120G C150A C169U U176C has a reverse-splicing fitness of 0.0219.
Variant C82A A111G A120G C150A C169U U176A has a reverse-splicing fitness of 0.0244.
Variant C82A A111G A120C A145U C169A U176A has a reverse-splicing fitness of 0.0138.
With C82A A111G A120C A145U C169A U176C the reverse-splicing fitness was 0.0152.
Work on C82A A111G A120C A145U C169A U176G yielded a reverse-splicing fitness of 0.00526.
Variant C82A A111G A120G A145C C150A C169U U176G has a reverse-splicing fitness of 0.00484.
In the case of C82A A111G A120G A145C C150A C169U U176A, the reverse-splicing fitness is reported as 0.0207.
Work on C82A A111G A120G A145C C150A C169U U176C yielded a reverse-splicing fitness of 0.0117.
C82A A111G A120C C169A U176G gave a reverse-splicing fitness of 0.00575.
Variant C82A A111G A120C C169A U176C has a reverse-splicing fitness of 0.0223.
In the case of C82A A111G A120C C169A U176A, the reverse-splicing fitness is reported as 0.0173.
C82A A111G A120G C150U U176C showed a reverse-splicing fitness of 0.0156.
Work on C82A A111G A120G C150U U176G yielded a reverse-splicing fitness of 0.00781.
Work on C82A A111G A120G C150U U176A yielded a reverse-splicing fitness of 0.0108.
Work on C82A A111G A120G A145U C150G C169G yielded a reverse-splicing fitness of 0.00677.
For C82A A111G A120G A145U C150G C169U, the reverse-splicing fitness was 0.00867.
In the case of C82A A111G A120G A145U C150G C169A, the reverse-splicing fitness is reported as 0.00989.
For C82A A111G A120G C169A U176G, the reverse-splicing fitness was 0.00477.
C82A A111G A120G C169A U176A showed a reverse-splicing fitness of 0.0178.
C82A A111G A120G C169A U176C showed a reverse-splicing fitness of 0.0213.
C82A A111G A120C C150U C169G U176G showed a reverse-splicing fitness of 0.00643.
For C82A A111G A120C C150U C169G U176C, the reverse-splicing fitness was 0.0203.
In the case of C82A A111G A120C C150U C169G U176A, the reverse-splicing fitness is reported as 0.0173.
C82A A111G A120G C150U C169U U176G showed a reverse-splicing fitness of 0.00738.
Work on C82A A111G A120G C150U C169U U176A yielded a reverse-splicing fitness of 0.023.
C82A A111G A120G C150U C169U U176C showed a reverse-splicing fitness of 0.0179.
Work on C82A A111G A120G A145C C150G C169U U176A yielded a reverse-splicing fitness of 0.0129.
With C82A A111G A120G A145C C150G C169U U176C the reverse-splicing fitness was 0.0141.
Work on C82A A111G A120G A145C C150G C169U U176G yielded a reverse-splicing fitness of 0.00529.
In the case of C82A A111G A120G, the reverse-splicing fitness is reported as 0.0164.
Variant C82A A111G A120G A145G C150G C169A has a reverse-splicing fitness of 0.00897.
Work on C82A A111G A120G A145G C150G C169G yielded a reverse-splicing fitness of 0.00754.
With C82A A111G A120G A145G C150G C169U the reverse-splicing fitness was 0.0091.
In the case of C82A A111G A120G A145C C169U U176C, the reverse-splicing fitness is reported as 0.0129.
With C82A A111G A120G A145C C169U U176G the reverse-splicing fitness was 0.00388.
Variant C82A A111G A120G A145C C169U U176A has a reverse-splicing fitness of 0.0193.
With C82A A111G A120G A145G C150U U176A the reverse-splicing fitness was 0.00945.
C82A A111G A120G A145G C150U U176G showed a reverse-splicing fitness of 0.00788.
C82A A111G A120G A145G C150U U176C gave a reverse-splicing fitness of 0.0182.
With C82A A111G A120C C150G C169U U176A the reverse-splicing fitness was 0.00701.
Work on C82A A111G A120C C150G C169U U176G yielded a reverse-splicing fitness of 0.00651.
Work on C82A A111G A120C C150G C169U U176C yielded a reverse-splicing fitness of 0.0107.
C82A A111G A120G A145G C169U U176G showed a reverse-splicing fitness of 0.00492.
With C82A A111G A120G A145G C169U U176C the reverse-splicing fitness was 0.0173.
For C82A A111G A120G A145G C169U U176A, the reverse-splicing fitness was 0.019.
In the case of C82A A111G A120G A145G C150G C169A U176G, the reverse-splicing fitness is reported as 0.00875.
Variant C82A A111G A120G A145G C150G C169A U176A has a reverse-splicing fitness of 0.0139.
With C82A A111G A120G A145G C150G C169A U176C the reverse-splicing fitness was 0.0131.
C82A A111G A120G A145U gave a reverse-splicing fitness of 0.015.
With C82A A111G A120G A145C the reverse-splicing fitness was 0.0136.
Work on C82A A111G A120G A145G yielded a reverse-splicing fitness of 0.0165.
C82A A111G A120C C169G U176A showed a reverse-splicing fitness of 0.0206.
In the case of C82A A111G A120C C169G U176G, the reverse-splicing fitness is reported as 0.00548.
Variant C82A A111G A120C C169G U176C has a reverse-splicing fitness of 0.0237.
For C82A A111G A120G C150G U176A, the reverse-splicing fitness was 0.0058.
For C82A A111G A120G C150G U176G, the reverse-splicing fitness was 0.00346.
In the case of C82A A111G A120G C150G U176C, the reverse-splicing fitness is reported as 0.00974.
Work on C82A A111G A120G A145U C150G C169U U176A yielded a reverse-splicing fitness of 0.012.
C82A A111G A120G A145U C150G C169U U176G showed a reverse-splicing fitness of 0.00483.
C82A A111G A120G A145U C150G C169U U176C showed a reverse-splicing fitness of 0.0132.
C82A A111G A120G A145G C150A C169U gave a reverse-splicing fitness of 0.00938.
Work on C82A A111G A120G A145G C150A C169G yielded a reverse-splicing fitness of 0.00854.
With C82A A111G A120G A145G C150A C169A the reverse-splicing fitness was 0.0103.
Variant C82A A111G A120G A145C C150U C169A U176G has a reverse-splicing fitness of 0.00561.
C82A A111G A120G A145C C150U C169A U176C gave a reverse-splicing fitness of 0.00635.
In the case of C82A A111G A120G A145C C150U C169A U176A, the reverse-splicing fitness is reported as 0.0114.
In the case of C82A A111G A120G A145C C150A U176A, the reverse-splicing fitness is reported as 0.0107.
C82A A111G A120G A145C C150A U176G gave a reverse-splicing fitness of 0.00509.
With C82A A111G A120G A145C C150A U176C the reverse-splicing fitness was 0.00922.
C82A A111G A120C C150A C169A U176G showed a reverse-splicing fitness of 0.00754.
C82A A111G A120C C150A C169A U176A showed a reverse-splicing fitness of 0.0277.
Variant C82A A111G A120C C150A C169A U176C has a reverse-splicing fitness of 0.0231.
C82A A111G A120G A145U C150A gave a reverse-splicing fitness of 0.00927.
